{"source": "paper PMC2527117", "about": "(The Journal of Biological Chemistry, 2008)", "proteins": {"B1": {"name": "PfUIS3 soluble domain (residues 83-229) (domain or fragment, Plasmodium falciparum, UniProt Q8IEU1 83-229, looked up)", "chain": "YYGYKKSREDDLYYNKYLEYRNGEYNIKYQDGAIASTSEFYIEPEGINKINLNKPIIENKNNVDVSIKRYNNFVDIARLSIQKHFEHLSNDQKDSHVNNMEYMQKFVQGLQENRNISLSKYQENKAVMDLKYHLQKVYANYLSQEEN"}}, "biological_target": "the molecule itself", "test": "SEC", "data": [{"protein": "B1", "values": [{"measurement": "stoichiometry N", "result": 2}]}]}
